# Reference: patent US20190127451A1
# Biological target: alternative-spliced domain A1 of human Tenascin C (human) (UniProt P24821)
# Assay: SPR (BIAcore), antibody over hTnC A1 on CM5 chip, fitted 50 nM curves
# UniProt P24821, sequence (P24821 1072-1162): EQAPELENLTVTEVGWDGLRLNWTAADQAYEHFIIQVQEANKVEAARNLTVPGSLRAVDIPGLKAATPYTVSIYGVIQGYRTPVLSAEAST
binder,measurement,value
"IgG(F16)-3S-N88Q (antibody, V domains shown, glycosylated Heavy Chain (site not given)) VH: EVQLLESGGGLVQPGGSLRLSCAASGFTFSRYGMSWVRQAPGKGLEWVSAISGSGGSTYYADSVKGRFTISRDNSKNTLYLQMNSLRAEDTAVYYCAKAHNAFDYWGQGTLVTVSS VL: SSELTQDPAVSVALGQTVRITCQGDSLRSYYASWYQQKPGQAPVLVIYGKNNRPSGIPDRFSGSSSGNTASLTITGAQAEDEADYYCQSSVYTMPPVVFGGGTKLTVLG",fold lower apparent KD than wild-type IgG(F16)-3S,4 to 8 fold
